Test results: patent publication US9676849B2, “Enhancement of transport of therapeutic molecules across the blood brain barrier” (Biogen Idec MA Inc., priority 2012, dated 2017)

B1: FC5: llama single domain VHH antibody binding TMEM30A, SEQ ID NO: 10, with myc and His tags (protein)
VHH: EVQLQASGGGLVQAGGSLRLSCAASGFKITHYTMGWFRQAPGKEREFVSRITWGGDNTFYSNSVKGRFTISRDNAKNTVYLQMNSLKPEDTADYYCAAGSTSTATPLRVDYWGKGTQVTVSS
modifications: myc and His tags

What was measured:
[1] = Circulating pharmacokinetics of FC5 containing molecules in rats; format: in vivo; conditions: rat, intraperitoneal 3 mpk; for Beta-phase half life (h), assay format Fluorescence: AL680 labeled molecules, fluorescence from sera
Experimental: To understand the exposure of the BBB endothelium to each of the FC5 containing antibodies the pharmacokinetics the molecules were determined in rats. Animals were dosed intraperitoneally at 3 mpk with either the FC5 Vhh N-terminally (FC5-Fc) or C-terminally (Fc-FC5) fused to a human Fc domain. Concentrations of FC5-Fc or Fc-FC5 in the plasma were determined at various time points by ELISA. The results were analyzed to determine the beta-phase half-lives of each construct (Table II).
Half-life was determined by ELISA detection of the human Fc from rat serum or with AL680 labeled molecules and the fluorescence determined from the sera. No difference was observed between molecules in which the half-life was determined by fluorescence versus ELISA. Molecules were injected intraperitoneal at 3 mpk.

[2] = test system: immortalized adult rat brain endothelial cells (SV-ARBEC); assay: In vitro transport rate across BBB endothelial cell monolayer; format: in vitro ADME; conditions: compared with control antibodies 12F6A, CRL2434 and C37H; FIG. 3
Excerpt: We used an in vitro BBB endothelial cell layer to model in vivo cross BBB flux rates for each FC5 containing protein. The in vitro model uses a monolayer of immortalized adult rat brain endothelial cells (SV-ARBEC) in a monolayer assay system validated for tightness with small molecules (Garberg, P., Ball, M., Borg, N., Cecchelli, R., Fenart, L., Hurst, R. D., Lindmark, T., Mabondzo, A., Nilsson, J. E., Raub, T. J., Stanimirovic, D., Terasaki, T., Oberg, J. O., and Osterberg, T. (2005) Toxicol In Vitro 19(3), 299-334). The methods for the in vitro flux rate determinations are nearly identical to those described in (Caram-Salas, N., Boileau, E., Farrington, G. K., Garber, E., Brunette, E., Abulrob, A., and Stanimirovic, D. Methods in molecular biology 763, ed. 2010, 383-401).

SV-ARBEC = assay: Fluorescent flow cytometry binding to SV40 transformed rat BBB endothelial cells; conditions: SV40 transformed cell line vs primary cells
Experimental: (§1) The binding affinity of each molecule was evaluated in separate Fluorescent Flow Cytometry assay using freshly isolated rat BBB endothelial cells, SV40 transformed rat BBB endothelial cells (Caram-Salas, N., Boileau, E., Farrington, G. K., Garber, E., Brunette, E., Abulrob, A., and Stanimirovic, D. Methods in molecular biology 763, ed. 2010, 383-401) and to Hek293 cells transiently transfected with the previously identified target TMEM30A.

mu pain receptors = biological target: T1, mu pain receptors (Rattus norvegicus, UniProt P33535); assay: Hargreaves model of thermal pain, Dalargin alone or linked; format: in vivo; conditions: for Fold potency compared to FC5-Dal in Hargreaves model: IV, based on molar ratio of Dalargin injected
T1 construct: from tissue; host or cells: rat brain (periaqueductal region), in vivo
Excerpt: The Hargreaves model measures increased sensitivity to thermal pain induced by injection of Freud's adjuvant in a paw. The thermal pain can be suppressed upon binding of a six amino acid peptide Dalargin to the mu pain receptors expressed in the peri-aquaductal portion of the brain. […] Thus intravenously injected Dalargin must be linked to a receptor mediated transporter to allow cross BBB transport and suppression of pain. To evaluate the transport of Dalargin mediated by FC5 containing molecules across the BBB the Hargreaves animal model was used to compare the potency of various molecular forms of FC5 Vhh linked to Dalargin. The negative control molecule for FC5-Dalargin was EG2-Dalargin and for FC5-Fc-Dalargin was Fc-FC5-Dalargin.
Prior to intravenous (IV) injection each molecule was initially tested by intracerebroventricular (ICV) injection as a positive control to insure all linked molecules are functionally active and able to induce pain suppression. Both negative control and positive test molecules would be expected to suppress pain upon ICV injection as the molecules are injected directly into the cerebral spinal fluid and are able to diffuse to and block the periacquiductal mu pain receptors. […] Next each Dalargin labeled molecule and corresponding Dalargin labeled control protein were evaluated for efficacy upon IV administration. Initially, the efficacy of FC5-Dal versus the control (EG2-Dal) was compared. […] It is interesting to note that three doses of FC5-Dal at 7.5 mg per kg (mpk) per dose as needed prior to observing the initial pain suppression.
Chronic pain suppression is expressed as the percentage of maximum possible effect (% MPE). The value is based on the area under the curve for pain suppressed animal relative to the contralateral control paw over the time frame of measurement. The efficacy of molecules injected either ICV or IV is shown as a percent of maximum possible effect (% MPE) in the Hargreaves model. […] Dose in mpk for intravenous (IV) dosing values are indicated as per injection followed by the number of injections.

Primary rat BBB EC = assay: Fluorescent flow cytometry binding to primary rat BBB endothelial cells; conditions: read-out: Affinity (nM), Primary rat BBB EC
Experimental: as §1

T1 sequence (P33535 whole entry): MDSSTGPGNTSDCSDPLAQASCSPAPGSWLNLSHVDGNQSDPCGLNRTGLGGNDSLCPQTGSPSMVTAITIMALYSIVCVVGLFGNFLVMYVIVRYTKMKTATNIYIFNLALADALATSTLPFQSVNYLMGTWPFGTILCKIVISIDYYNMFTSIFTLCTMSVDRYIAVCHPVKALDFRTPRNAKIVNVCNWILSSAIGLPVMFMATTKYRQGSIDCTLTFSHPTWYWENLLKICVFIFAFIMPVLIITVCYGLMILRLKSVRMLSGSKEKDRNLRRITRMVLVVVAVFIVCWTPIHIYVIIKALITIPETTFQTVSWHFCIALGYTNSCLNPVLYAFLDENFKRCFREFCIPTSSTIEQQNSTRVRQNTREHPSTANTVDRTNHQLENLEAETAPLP

Molecule	half-life when fused to a human Fc compared with FC5 Vhh alone [1]	Beta-phase half life (h), assay format Fluorescence [1] [h]	Beta-phase half life (h), assay format ELISA ([1]; ELISA detection of human Fc from rat serum) [h]	rate of transport across in vitro SV40 rat BBB transformed endothelial cell line [2]	fold weaker binding than to primary rat BBB endothelial cells (SV-ARBEC)	Fold potency compared to FC5-Dal in Hargreaves model (mu pain receptors) [fold]	average % MPE after the first 0.5 h (mu pain receptors; rat, single IV dose 0.5 mpk) [% MPE]	Kd (Primary rat BBB EC) [nM]
FC5-Fc	significantly longer	39.4	35.7	increased rate of transport	about 7 fold	80	50	
Fc-FC5	significantly longer	38.6		increased rate of transport		<0.1		
B1				increased rate of transport		1		> 2000
